This is an account of results in the supplement of paper PMC9112550, “Optimization of the antimicrobial peptide Bac7 by deep mutational scanning” (BMC Biology, 2022).

This data set concerns Escherichia coli TOP10. As to the kind of experiment: shrunken log2 fold change of peptide-encoding DNA abundance (4.5 h post-induction vs induction); higher = less antimicrobial activity (less host growth inhibition). The settings on record: time post-induction: 4.5 h; library: site-saturation at positions 5, 18, 19, 20.
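Also: peptides expressed intracellularly from a pBAD plasmid library in pooled LB shake-flask culture, induced with 0.3% L-arabinose, DNA abundance read by NGS, three biological replicates, DESeq2 with apeglm shrinkage.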

With RRIRTRPPRLPRPRPRPLLGPRP, the “shrunken log2 fold change” value is -0.185.
With RRIRYRPPRLPRPRPRPKCFPRP, the “shrunken log2 fold change” value is -0.0925.
The same measure for RRIRARPPRLPRPRPRPGVEPRP: 0.118; for RRIRYRPPRLPRPRPRPTHIPRP: -1.04.
Consider RRIRWRPPRLPRPRPRPMLQPRP, for which the “shrunken log2 fold change” value came out at 0.544.
For the sequence RRIRLRPPRLPRPRPRPAAAPRP, the “shrunken log2 fold change” value was found to be 1.04.
As for RRIRKRPPRLPRPRPRPQNMPRP, the “shrunken log2 fold change” value was -0.521.
As to RRIRRRPPRLPRPRPRPGVRPRP, the “shrunken log2 fold change” value was determined as 0.318.
The same measure for RRIRLRPPRLPRPRPRPLINPRP: -0.519; for RRIRWRPPRLPRPRPRPWCIPRP: -0.225; for RRIRLRPPRLPRPRPRPYKEPRP: -0.0365.
To RRIRCRPPRLPRPRPRPYNGPRP belongs -0.216; to RRIRFRPPRLPRPRPRPGKSPRP, 0.0865.
For the sequence RRIRSRPPRLPRPRPRPWKSPRP, the “shrunken log2 fold change” value was -0.0239.
As to RRIRTRPPRLPRPRPRPWQSPRP, the “shrunken log2 fold change” value was found to be 0.0475.
As for RRIRSRPPRLPRPRPRPETIPRP, the “shrunken log2 fold change” value stood at 0.148.
Regarding RRIRARPPRLPRPRPRPRQDPRP, the “shrunken log2 fold change” value was 0.34.
To RRIRWRPPRLPRPRPRPYVMPRP belongs -0.511; to RRIRPRPPRLPRPRPRPRIMPRP, -0.0771; to RRIRNRPPRLPRPRPRPICAPRP, 0.0914.
The same measure for RRIRNRPPRLPRPRPRPMHFPRP: -0.145; for RRIRNRPPRLPRPRPRPYHQPRP: -0.308.
The same measure for RRIRIRPPRLPRPRPRPQIWPRP: -0.174.
For the sequence RRIRKRPPRLPRPRPRPTFNPRP, the “shrunken log2 fold change” value was -0.344.
As for RRIRLRPPRLPRPRPRPGDAPRP, the “shrunken log2 fold change” value is -0.127.
To RRIRGRPPRLPRPRPRPRYQPRP belongs 0.615; to RRIRWRPPRLPRPRPRPKWPPRP, 0.477.
To RRIRRRPPRLPRPRPRPDQLPRP belongs -0.0202; to RRIRCRPPRLPRPRPRPATHPRP, -0.0187; to RRIRGRPPRLPRPRPRPGLTPRP, 1.09.
The same measure for RRIRHRPPRLPRPRPRPVYSPRP: -0.0167; for RRIRDRPPRLPRPRPRPTEWPRP: 0.531.
Turning to RRIRERPPRLPRPRPRPRFIPRP, the “shrunken log2 fold change” value was -0.414.
The same measure for RRIRERPPRLPRPRPRPQCLPRP: -0.116; for RRIRKRPPRLPRPRPRPAGGPRP: 0.435; for RRIRQRPPRLPRPRPRPWYFPRP: -0.289.
As for RRIRNRPPRLPRPRPRPCSDPRP, the “shrunken log2 fold change” value came out at 0.0121.
To RRIRQRPPRLPRPRPRPCFVPRP belongs -0.0859; to RRIRYRPPRLPRPRPRPFCVPRP, -0.264; to RRIRARPPRLPRPRPRPEGRPRP, 2.11.
The same measure for RRIRARPPRLPRPRPRPEWGPRP: 1.06.
RRIRCRPPRLPRPRPRPLATPRP: the “shrunken log2 fold change” value worked out at 0.146.
Consider RRIRTRPPRLPRPRPRPFWMPRP, for which the “shrunken log2 fold change” value is -0.111.
Consider RRIRFRPPRLPRPRPRPRRQPRP, for which the “shrunken log2 fold change” value was determined as 0.108.
Regarding RRIRHRPPRLPRPRPRPDKLPRP, the “shrunken log2 fold change” value is -0.0246.
As for RRIRVRPPRLPRPRPRPVRDPRP, the “shrunken log2 fold change” value is 0.0998.
As for RRIRTRPPRLPRPRPRPSWEPRP, the “shrunken log2 fold change” value was 0.0239.
The same measure for RRIRQRPPRLPRPRPRPRRLPRP: 0.752.
The same measure for RRIRHRPPRLPRPRPRPWSMPRP: -0.293.
To RRIRGRPPRLPRPRPRPRSNPRP belongs 0.363.
RRIRRRPPRLPRPRPRPMSAPRP: the “shrunken log2 fold change” value came to 0.128.
Turning to RRIRQRPPRLPRPRPRPWHYPRP, the “shrunken log2 fold change” value was -0.484.
Turning to RRIRLRPPRLPRPRPRPQHRPRP, the “shrunken log2 fold change” value was -0.0199.
The same measure for RRIRMRPPRLPRPRPRPDSGPRP: -0.01.
Turning to RRIRRRPPRLPRPRPRPKSSPRP, the “shrunken log2 fold change” value was -0.00897.
For RRIRGRPPRLPRPRPRPWGQPRP, the “shrunken log2 fold change” value stood at 0.204.
Turning to RRIRCRPPRLPRPRPRPIKWPRP, the “shrunken log2 fold change” value was -0.343.
Take RRIRQRPPRLPRPRPRPKENPRP: the “shrunken log2 fold change” value came to 0.168.
The same measure for RRIRIRPPRLPRPRPRPNWAPRP: 0.0373.
In the case of RRIRVRPPRLPRPRPRPNAHPRP, the “shrunken log2 fold change” value was 0.038.
Consider RRIRMRPPRLPRPRPRPGEMPRP, for which the “shrunken log2 fold change” value worked out at 0.0709.
For the sequence RRIRARPPRLPRPRPRPAPKPRP, the “shrunken log2 fold change” value is 1.
In the case of RRIRFRPPRLPRPRPRPIGDPRP, the “shrunken log2 fold change” value is -0.033.
For the sequence RRIRMRPPRLPRPRPRPLQQPRP, the “shrunken log2 fold change” value is 2.85.
To RRIRTRPPRLPRPRPRPCNVPRP belongs -0.00968.
As for RRIRCRPPRLPRPRPRPKMWPRP, the “shrunken log2 fold change” value is 1.22.
Consider RRIRERPPRLPRPRPRPFQSPRP, for which the “shrunken log2 fold change” value was -0.00776.
The same measure for RRIRHRPPRLPRPRPRPDKNPRP: -0.496; for RRIRHRPPRLPRPRPRPASYPRP: -0.103; for RRIRHRPPRLPRPRPRPYNQPRP: -0.342.
For RRIRNRPPRLPRPRPRPCNYPRP, the “shrunken log2 fold change” value is -0.164.
As to RRIRFRPPRLPRPRPRPPMWPRP, the “shrunken log2 fold change” value stood at 0.486.
Take RRIRMRPPRLPRPRPRPHIYPRP: the “shrunken log2 fold change” value was -0.289.
Take RRIRKRPPRLPRPRPRPVWIPRP: the “shrunken log2 fold change” value was 0.0328.
The same measure for RRIRVRPPRLPRPRPRPFCTPRP: -0.389; for RRIRTRPPRLPRPRPRPYRIPRP: -0.0176.
Take RRIRARPPRLPRPRPRPNWGPRP: the “shrunken log2 fold change” value was -0.267.
Consider RRIRKRPPRLPRPRPRPLYMPRP, for which the “shrunken log2 fold change” value was -0.514.
For the sequence RRIRFRPPRLPRPRPRPFGYPRP, the “shrunken log2 fold change” value was -0.113.
Regarding RRIRRRPPRLPRPRPRPHCCPRP, the “shrunken log2 fold change” value was 0.208.
To RRIRIRPPRLPRPRPRPSHQPRP belongs 0.0866.
In the case of RRIRFRPPRLPRPRPRPLLDPRP, the “shrunken log2 fold change” value is -0.0563.
To RRIRYRPPRLPRPRPRPNGCPRP belongs -0.000687; to RRIRPRPPRLPRPRPRPRQFPRP, 0.556.
To RRIRRRPPRLPRPRPRPYFSPRP belongs -0.122; to RRIRTRPPRLPRPRPRPGDAPRP, 0.206; to RRIRHRPPRLPRPRPRPCREPRP, 0.0163.
To RRIRVRPPRLPRPRPRPGVEPRP belongs 0.243.
For RRIRVRPPRLPRPRPRPLMCPRP, the “shrunken log2 fold change” value was -0.268.
The same measure for RRIRPRPPRLPRPRPRPQYWPRP: -0.0415; for RRIRWRPPRLPRPRPRPKCWPRP: 0.467; for RRIRVRPPRLPRPRPRPFMFPRP: -0.433.
For the sequence RRIRYRPPRLPRPRPRPNNSPRP, the “shrunken log2 fold change” value was -0.52.
As to RRIRDRPPRLPRPRPRPHQTPRP, the “shrunken log2 fold change” value is 0.0267.
Take RRIRLRPPRLPRPRPRPDYFPRP: the “shrunken log2 fold change” value is -0.146.
As to RRIRVRPPRLPRPRPRPYCNPRP, the “shrunken log2 fold change” value is -0.501.
The same measure for RRIRERPPRLPRPRPRPKVKPRP: 0.0263.
The same measure for RRIRFRPPRLPRPRPRPVCWPRP: 0.399.
For RRIRRRPPRLPRPRPRPMQDPRP, the “shrunken log2 fold change” value was determined as 0.452.
As to RRIRCRPPRLPRPRPRPMEIPRP, the “shrunken log2 fold change” value was -1.16.
As for RRIRPRPPRLPRPRPRPTWKPRP, the “shrunken log2 fold change” value is -0.0108.
The same measure for RRIRIRPPRLPRPRPRPWKFPRP: -0.158; for RRIRNRPPRLPRPRPRPRNHPRP: -0.0174.
To RRIRWRPPRLPRPRPRPRYSPRP belongs -0.136; to RRIRKRPPRLPRPRPRPFEEPRP, 0.148.
As for RRIRYRPPRLPRPRPRPNANPRP, the “shrunken log2 fold change” value is -2.
To RRIRMRPPRLPRPRPRPLANPRP belongs 0.235; to RRIRTRPPRLPRPRPRPSQMPRP, -0.607; to RRIRARPPRLPRPRPRPAKWPRP, 0.273.
The same measure for RRIRLRPPRLPRPRPRPVMRPRP: 0.076; for RRIRYRPPRLPRPRPRPNHTPRP: -0.259; for RRIRFRPPRLPRPRPRPQRSPRP: -0.105.
Regarding RRIRVRPPRLPRPRPRPMDWPRP, the “shrunken log2 fold change” value is -0.138.
For RRIRIRPPRLPRPRPRPYLVPRP, the “shrunken log2 fold change” value was -0.289.
For the sequence RRIRCRPPRLPRPRPRPQIVPRP, the “shrunken log2 fold change” value was -0.345.
The same measure for RRIRGRPPRLPRPRPRPVGRPRP: 0.842.
To RRIRSRPPRLPRPRPRPKTMPRP belongs 0.0109; to RRIRTRPPRLPRPRPRPGSDPRP, 0.424; to RRIRKRPPRLPRPRPRPGWTPRP, 0.438.
Turning to RRIRSRPPRLPRPRPRPQRVPRP, the “shrunken log2 fold change” value is -0.00684.
The same measure for RRIRDRPPRLPRPRPRPECKPRP: 0.109; for RRIRPRPPRLPRPRPRPIMGPRP: -0.233; for RRIRQRPPRLPRPRPRPEVQPRP: -0.0138.
The same measure for RRIRARPPRLPRPRPRPYVLPRP: -0.347.
As to RRIRARPPRLPRPRPRPYSRPRP, the “shrunken log2 fold change” value was -0.0171.
